In US20220323561A1 (ENTEROME S A, published 2022):

Molecular target: T1, HLA-A*0201 molecule expressed on human T2 cells (human)
T1 construct: also called HLA-A2
Assay: T2 cells (HLA-A*0201), anti-HLA-A2 flow cytometry

| Binder | binding result |
| --- | --- |
| FLFGAPASA [TNFRSF13C-B11] | binds |
| ILAFVPLYL [CD37-B12] | binds |
| AMNSLSLTV [MS4A1-B43] | binds |
| VLAFVPLGV [CD37-B15] | binds |
| RVFEHPELV [CD22-B13] | binds |
| YMNSLSLAL (Printed as YMNSLSLAL) [MS4A1-B42] | binds |
| LLFGAPAGV [TNFRSF13C-B12] | binds |
| FLAFVPLDV [CD37-B14] | binds |
| VLFGAPAYL [TNFRSF13C-B13] | binds |
